Experimental data as given in patent US20090169546A1 (published 2009).
No end group written: not given here.

T1: recombinant HMG1 produced in E. coli as calmodulin binding protein (CBP) fusion (human)
T1 chain: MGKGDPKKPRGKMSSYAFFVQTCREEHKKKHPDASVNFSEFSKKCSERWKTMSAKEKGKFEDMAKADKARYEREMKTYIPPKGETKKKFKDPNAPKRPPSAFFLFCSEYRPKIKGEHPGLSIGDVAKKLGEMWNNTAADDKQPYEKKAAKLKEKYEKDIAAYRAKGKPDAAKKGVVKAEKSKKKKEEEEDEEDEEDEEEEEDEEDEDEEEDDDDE

T2: native nuclear HMG1 prepared from 293H cells by freeze thaw (human, UniProt P09429 1-215)
T2 sequence (looked up): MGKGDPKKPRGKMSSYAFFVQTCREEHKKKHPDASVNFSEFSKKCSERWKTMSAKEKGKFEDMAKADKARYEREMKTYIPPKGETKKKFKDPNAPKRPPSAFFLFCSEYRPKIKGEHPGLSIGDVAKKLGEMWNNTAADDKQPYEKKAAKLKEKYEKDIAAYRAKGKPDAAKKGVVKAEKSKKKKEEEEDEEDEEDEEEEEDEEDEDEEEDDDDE

T3: activated HMG1 prepared from LPS stimulated THP-1 cells (human, UniProt P09429 1-215)
T3 construct: also called Native HMGB
T3 sequence (looked up): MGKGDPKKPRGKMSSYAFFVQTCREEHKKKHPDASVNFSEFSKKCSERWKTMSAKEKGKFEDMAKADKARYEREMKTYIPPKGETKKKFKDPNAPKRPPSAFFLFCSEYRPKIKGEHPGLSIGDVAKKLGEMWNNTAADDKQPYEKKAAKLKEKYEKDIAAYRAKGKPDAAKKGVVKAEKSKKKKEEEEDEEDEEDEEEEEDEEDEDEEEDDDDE

T4: released HMG1 from the conditioned media of necrotic 293H cells (human, UniProt P09429 1-215)
T4 construct: also called necrotic HMG1
T4 sequence (looked up): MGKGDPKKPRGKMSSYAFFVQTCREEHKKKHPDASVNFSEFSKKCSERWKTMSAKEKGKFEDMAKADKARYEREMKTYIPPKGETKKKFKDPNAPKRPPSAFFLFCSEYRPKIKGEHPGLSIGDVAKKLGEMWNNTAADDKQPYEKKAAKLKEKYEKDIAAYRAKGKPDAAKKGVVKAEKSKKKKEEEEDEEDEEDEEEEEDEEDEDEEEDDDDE

T5: actively secreted HMGB1 of LPS activated HUVEC cells (UniProt P09429 1-215)
T5 sequence (looked up): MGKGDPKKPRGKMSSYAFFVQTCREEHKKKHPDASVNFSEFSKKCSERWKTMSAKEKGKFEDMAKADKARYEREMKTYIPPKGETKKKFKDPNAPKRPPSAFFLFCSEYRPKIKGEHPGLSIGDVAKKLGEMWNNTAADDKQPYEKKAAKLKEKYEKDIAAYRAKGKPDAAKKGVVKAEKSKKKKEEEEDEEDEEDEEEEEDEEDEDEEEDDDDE

T6: HMGB1 B-box peptide 91-108 (human, also: biotinylated, site not given here)
T6 peptide: DPNAPKRPPSAFFLFCSE

T7: nuclear HMGB1 in HUVEC cells (UniProt P09429 1-215)
T7 construct: HUVEC are human cells; also called nuclear HMGB1 (immunostaining)
T7 sequence (looked up): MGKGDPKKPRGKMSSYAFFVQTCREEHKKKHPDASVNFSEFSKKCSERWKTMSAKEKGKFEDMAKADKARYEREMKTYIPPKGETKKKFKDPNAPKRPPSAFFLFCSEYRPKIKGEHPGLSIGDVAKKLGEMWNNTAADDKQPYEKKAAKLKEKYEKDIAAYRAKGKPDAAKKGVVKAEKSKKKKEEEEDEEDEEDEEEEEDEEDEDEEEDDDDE


Tests used:
[1] = target: T1, recombinant HMG1 produced in E. coli as …; test: ELISA; HMGB1 preincubated with antibody, then added to immobilised RAGE-Fc
Experimental: HMG1 binding to RAGE-Ig by ELISA: 50 μl/well of RAGE-Fc fusion protein at 5 μg/ml in PBS was added to each well of an ELISA plate and incubated overnight at 4° C. The plate was then blocked with 200 μl of 5% milk at 37° C. for 1 hr and washed 3× with PBS/Tween. 50 μl/well of diluted HMGB1 solution. For dose curves, HMGB1 concentrations started at 4 ug/ml in PBS. For antibody blocking the HMGB1 was preincubated in another plate with human anti-HMG1 antibodies or buffer, then transferred to the RAGE-coated plate. The plates were then incubated at room temperature for 2 hours and washed 3×. To detect any HMG1 bound to the immobilized RAGE-Fc a mixture of biotinylated mouse anti-HMG1 mAbs (10D4, 4H11, 3E10 and 5C12) each at 1 ug/ml, total Ab: 4 ug/ml, were added to each well and the plate was incubated for 1 hour at room temperature. The plate was then washed and Strepavidin-HPR was added to each well and incubated 15 min. The plate was then washed 3× and blotted dry. 100 μl of TMB developing agent was added and the plate read at 650 nm. Values were calculated as percent of inhibition with HMG1 alone equal to 0% inhibition. The data in FIG. 9 and summarized in Table 1 represent the average of two separate experiments.

[2] = target: T1, recombinant HMG1 produced in E. coli as …; test: BIAcore 3000; mAb amine-coupled to CM5, HMG1 injected in two-fold dilutions; steady-state model
Experimental: HMG1 Binding Affinity via BIAcore Analysis: All experiments were performed on a BIAcore 3000 instrument (BIAcore, Inc., Piscataway, N.J.). Briefly, each mAb was immobilized to a CM5 sensor chip using a standard amine coupling chemistry. Separately a reference (control) flow cell was also prepared. Two-fold, serial dilutions of HMG1 in instrument buffer were sequentially injected at a slow flow rate over the individual mAb and reference flow-cell surfaces. Following the binding and dissociation of HMG1, the mAbs surfaces were regenerated with a brief pulse of 1M NaCl-50 mM NaOH. At the end of each experiment, the binding curves were evaluated using a steady-state model available through the BIAevaluation software supplied by BIAcore, Inc. (Piscataway, N.J.).

[3] = target: T2, native nuclear HMG1 prepared from 293H …; test: HMG1 capture (sandwich) ELISA, FIG. 4B
Experimental: (§1) Sandwich ELISA (soluble HMG1): Immunoplates (EIA/RIA plate, High binding, Costar) were coated with anti human IgG Fc at 10 μg/ml in PBS (pH 7.2) and incubated at 4° C. overnight. The coating reagent was removed and the plates were rinsed briefly with PBS. The plates were then blocked with 4% milk for 1 hour at 37° C. and rinsed with PBS. The anti-HMG1 antibodies were diluted in 4% milk. For serial dilutions, the antibodies were used at a starting concentration of 20 μg/ml. The diluted anti-HMG1 antibodies were then added into plate and incubated for 1 hr at 37° C. The plate was then washed 10 times with PBST (PBS/0.1% tween 20) and incubate with antigen (HMGB1, 2 μg/ml; or 0.7 μg/ml for native HMGB1) in 4% milk and incubated at 37° C. for 1 h. The plate was then wash 10 times and incubated with mouse anti-HMGB1, 1 μg/ml in 4% milk at 37° C. for 1 h. The plate was washed 10 times and incubated with anti-mouse IgG-HRP at 1:1000 at 37° C. for 1 h. The plate was then washed and developed. HRP activity was detected with Sureblue HRP substrate (KPL). Plates were read at 450 nm using a Kinetic Microplate Reader (Molecular Devices).

[4] = target: T1, recombinant HMG1 produced in E. coli as …; test: cell-based or functional assay
[5] = target: T2, native nuclear HMG1 prepared from 293H …; test: sandwich ELISA, relative binding
Experimental: as §1

[6] = target: T3, activated HMG1 prepared from LPS …; test: sandwich ELISA, relative binding
Experimental: as §1

[7] = target: T4, released HMG1 from the conditioned …; test: sandwich ELISA, relative binding
Experimental: as §1

[8] = target: T5, actively secreted HMGB1 of LPS …; test: immunofluorescence on LPS treated HUVEC, antibody 1 ug/ml
Experimental: (§2) Immunofluorescence: Intracytoplasmic (ic) HMGB1 was quantitated by direct immunofluorescence. HUVEC were harvested by trypsin-EDTA treatment and seeded on a glass coverslip. Once the cells are settled, they were stimulated with 0.2 μg/ml of LPS (Sigma) for 4 hours. The cells were fixed in 2% paraformaldehyde for 15 min and then permeabilized in 0.2% Triton X-100 for 2 min. Fixed and permeabilized cells were incubated with anti-HMGB1 antibodies at 1 μg/ml for 1 hour at room temperature. Cells were then washed to remove excess or nonspecifically bound primary antibody followed by incubation with anti human IgG conjugated with fluorescence (Pierce). The sections were mounted with fluoromount (Southern Associates, Birmingham, Ala.), and the images were processed with a Nikon microscope (Japan) and a SPOT imaging system (Diagnostic Instrument).
(§3) As noted above, the different antibodies bind differently to HMGB1 isolated or prepared from different sources. To expand this observation the anti-HMBG1 antibodies G4 and S6 were used for immunostaining of untreated or LPS activated THp-1 (not shown) and HUVEC cells (FIG. 4F). […] As nuclear HMHB1 binds to DNA and histones, which might be disrupted after cell freeze and thaw we immunoprecipitate freeze thaw preparation and probed for histones by Western Blot. No DNA or histones could be detected from this preparation (data not shown). […]

[9] = target: T6, HMGB1 B-box peptide 91-108; test: ELISA on biotinylated peptides captured on avidin
Experimental: The plate was then blocked with 4% milk powder dissolved in PBS at 37° C. for 1 hour. The blocking solution was removed and replaced with human anti-HMG1 antibodies at various concentrations (see FIGS. 5A-B). […] HRP activity was detected with Sureblue HRP substrate (KPL). Plates were read at 450 nm using a Kinetic Microplate Reader (Molecular Devices). […] After washing and blocking with 1% BSA in PBS, the biotinylated peptides were individually added into the avidin coated wells and incubated for 30 min at room temperature. The serial diluted antibody G4, S16 and S6 at the initial concentration at 10 μg/ml were then transferred into the wells followed by adding mouse anti human IgG-HRP conjugate (Pierce). Detection was accomplished by adding 50 μl of tetramethylbenzidine (TMB) substrate (KPL) and the absorbance was read at 450 nm.

[10] = target: T7, nuclear HMGB1 in HUVEC cells; test: immunofluorescence on HUVEC, antibody 1 ug/ml
Experimental: as §2, §3

Binder | percent inhibition of HMG1 binding to RAGE [1] [%] | Kd [2] [nM] | binding result [3] | IC50, inhibition of rHMG1 stimulated IL-1β release from human PBMCs [4] [µg/mL] | IC50, inhibition of rHMG1 stimulated IL-6 release from human PBMCs [4] [nM] | IC50, inhibition of rHMG1 stimulated TNF-α release from human PBMCs [4] [µg/mL] | IC50, inhibition of rHMG1 stimulated IL-12 release from human PBMCs [4] [µg/mL] | binding result [5] | binding result [6] | binding result [7] | binding result [8] | binding result [9] | binding result [10]
anti-HMG1 antibody S2 (antibody, V domains shown, also called ATCC PTA-6142) VH: EVQLLESGGGLVQPGGSLRLSCAASGFTFSGYMMVWVRQAPGKGLEWVSRISPSGGQTGYADSVKGRFTISRDNSKNTLYLQMNSLRAEDTAVYYCAREEGGSYGAFDIWGQGTMVTVSS VL: not shown | ≥ 35 | 36 | binds | 0.22 | 0.163 | 0.0642 | – | – | – | – | – | – | –
anti-HMG1 antibody S10 (antibody, V domains shown) VH: EVQLLESGGGLVQPGGSLRLSCAASGFTFSWYDMWWVRQAPGKGLEWVSWIVPSGGITAYADSVKGRFTISRDNSKNTLYLQMNSLRAEDTATYYCARGNYGPSPFDYWGQGTLVTVSS VL: DIQMTQSPGTLSLSPGERATLSCRATQSVRKNFLAWYQQKPGQAPRLLIYDASSRATGIPDRFSGSGSGTDFTLTISRLEPEDFAVYYCQQYGNSPIIFGQGTRLEIK | ≥ 35 | 54 | binds | 2.59 | 0.324 | 0.875 | 1.13 | – | – | – | – | – | –
anti-HMG1 antibody G4 (antibody, V domains shown, also called ATCC PTA-6258) VH: EVQLLESGGGLVQPGGSLRLSCAASGFTFSWYDMTWVRQAPGKGLEWVSSISPSGGYTKYADSVKGRFTISRDNSKNTLYLQMNSLRAEDTAVYYCTTEFYDYLDVWGKGTTVTVSS VL: DIQMTQSPGTLSLSPGEGATLSCRASQSVSSTYLAWYQQKPGQAPRLLIYEASKRATGTPARFSGSGSGTDFTLSISSLEPEDFAVYYCQHRHNWPPQWTFGQGTKVEVK | – | 30 | – | 5.01 | 0.9 | 5.51 | 0.715 | binds | binds | binds | binds | binds | binds
